Results on two substances are retold here after article PMC7117682.

The target of test [1] is CD47 naturally expressed on CD47(+) Jurkat T lymphoma cells (human (endogenous in Jurkat)) (UniProt Q08722). Briefly: laser scanning cytometry (LSC) on cells; titration of SIRPα-biotin on live DRAQ5-labelled Jurkat cells, 384-well, homogeneous (no wash), HEPES buffer (10 mM HEPES pH 7.5, 0.15 M NaCl), room temperature, neutravidin-Alexa488 0.5 μg/mL; SIRPα presented as a multimer on tetrameric neutravidin (avidity).

For test [2] the target is unchanged. Briefly: laser scanning cytometry (LSC) on cells; competition on live CD47(+) Jurkat cells, 384-well, homogeneous: a fixed concentration of SIRPα-biotin (20 nM) co-incubated with a titration of the competitor or inhibitor, neutravidin-Alexa488.

One may read the EC50 as the concentration giving half of the maximal effect. The low end stands for greater potency, the high end for weaker potency. As usually defined, the IC50 is the concentration needed to halve the response being measured.

CD47 naturally expressed on CD47(+) Jurkat T lymphoma cells (human (endogenous in Jurkat)), sequence (Q08722 19-323): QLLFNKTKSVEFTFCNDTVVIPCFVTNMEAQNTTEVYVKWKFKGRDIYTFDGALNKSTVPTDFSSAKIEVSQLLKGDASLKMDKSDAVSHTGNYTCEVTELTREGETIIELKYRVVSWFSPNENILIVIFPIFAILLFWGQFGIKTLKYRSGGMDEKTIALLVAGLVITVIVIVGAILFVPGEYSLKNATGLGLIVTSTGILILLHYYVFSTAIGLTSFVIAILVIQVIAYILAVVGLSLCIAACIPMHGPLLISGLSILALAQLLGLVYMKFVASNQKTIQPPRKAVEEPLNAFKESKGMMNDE

In test [1], “SIRPα variant 2, biotin-conjugated (SIRPα-Avi-biotin d1 construct) (domain or fragment)” showed a 50% effective concentration (EC50) of 0.016 µM and a fold more potent than SIRPαV1 of 2 fold.

Consider “SIRPα variant 2, non-biotin conjugated (cold) (domain or fragment)”, for which the IC50 in test [2] was 3 µM.
